In article PMC5137435:

How the values were obtained:
Test in all cases: fluorescence polarization
Egr1 three-finger domain = Egr1 three-finger domain (UniProt P18146 335-423)
WT1 ZF2-4 Q369P (-KTS) = WT1 ZF2-4 Q369P (-KTS) (Homo sapiens, UniProt P19544-4 350-437, Q369P)
WT1 ZF2-4 Q369H (-KTS) = WT1 ZF2-4 Q369H (-KTS) (Homo sapiens, UniProt P19544-4 350-437, Q369H)
WT1 ZF2-4 Q369K (-KTS) = WT1 ZF2-4 Q369K (-KTS) (Homo sapiens, UniProt P19544-4 350-437, Q369K)
WT1 ZF2-4 Q369R (-KTS) [1] = molecular target: T1, WT1 ZF2-4 Q369R (-KTS) (Homo sapiens, UniProt P19544-4 350-437, Q369R)
WT1 ZF2-4 Q369R (-KTS) [2] = molecular target: T1, WT1 ZF2-4 Q369R (-KTS); remark: listed apart in the source

B1: Fig1 oligo X=T (dsDNA)
DNA 1: AGCGTGGGTGT
DNA 2: TACACCCACGC
modifications: 5mC at strand 1 pos 3 and strand 2 pos 9
Question: What does the source list for B1?
Answer: binding result (Egr1 three-finger domain): binds; binding result (WT1 ZF2-4 Q369P (-KTS)): binds

B2: Fig1 oligo X=G (dsDNA)
DNA 1: AGCGTGGGGGT
DNA 2: TACCCCCACGC
modifications: 5mC at strand 1 pos 3 and strand 2 pos 9
Question: With B2 as the binder, how does the Kd (WT1 ZF2-4 Q369H (-KTS)) read?
Answer: Its Kd is under 3 nM.

Question: And the Kd (WT1 ZF2-4 Q369K (-KTS))?
Answer: Its Kd is 14 nM.

Question: And the Kd (WT1 ZF2-4 Q369R (-KTS) [1])?
Answer: The Kd was 24 nM.

B3: Fig1 oligo X=A (dsDNA)
DNA 1: AGCGTGGGAGT
DNA 2: TACTCCCACGC
modifications: 5mC at strand 1 pos 3 and strand 2 pos 9
Question: With B3 as the binder, how does the Kd (WT1 ZF2-4 Q369H (-KTS)) read?
Answer: Its Kd is 8 nM.

Question: What about the binding signal (WT1 ZF2-4 Q369R (-KTS) [2]) of the same binder?
Answer: Its binding signal is ~5 fold lower affinity than X=G.
